This is an account of results in the Human Domainome abundance scans (Beltran et al. 2025).

The chains are these.
B1: FERM and PDZ domain-containing protein 4, residues 75 to 154; numbered along this chain, Q14CM0 (parent)
chain: APRKVEMRRDPVLGFGFVAGSEKPVVVRSVTPGGPSEGKLIPGDQIVMINDEPVSAAPRERVIDLVRSCKESILLTVIQP

± gives the uncertainty stated by the source.

Variants of B1 are the subject of the series. The series is described as follows: abundance fitness (aPCA) (normalised: wild type 0, dead -1); higher = more abundant; growth selection in yeast, the domain comes from the species named. The conditions noted are these: Homo sapiens.
With V27L, the abundance fitness is -0.584 ± 0.031.
In the case of V27W, the abundance fitness is -1.1 ± 0.068.
With V27C the figure was -0.282 ± 0.038; with V27D, -0.802 ± 0.065; with V27E, -0.725 ± 0.043.
As for V27K, the abundance fitness was -0.916 ± 0.073.
Regarding V27Y, the abundance fitness was -1.02 ± 0.17.
With V27P, the abundance fitness is -0.764 ± 0.058.
For V27R, the abundance fitness is -0.958 ± 0.037.
As to V27M, the abundance fitness is -0.799 ± 0.063.
Under V27T stands -0.705 ± 0.053; under V27H, -0.878 ± 0.14.
In the case of V27N, the abundance fitness is -0.851 ± 0.099.
Turning to V27F, the abundance fitness was -0.79 ± 0.092.
For the variant V27A, the abundance fitness is -0.591 ± 0.033.
With V27G the figure was -0.938 ± 0.032; with V27S, -0.947 ± 0.053; with V27I, -0.07 ± 0.039.
Take R28E: the abundance fitness was determined as 0.034 ± 0.025.
As for R28N, the abundance fitness was found to be 0.001 ± 0.038.
Under R28Q stands 0.027 ± 0.031; under R28L, -0.036 ± 0.024.
For the variant R28P, the abundance fitness is -0.725 ± 0.052.
As to R28G, the abundance fitness was -0.014 ± 0.02.
With R28K the figure was -0.002 ± 0.03.
Regarding R28M, the abundance fitness is -0.065 ± 0.029.
Take R28A: the abundance fitness is -0.032 ± 0.023.
Under R28C stands -0.136 ± 0.032; under R28D, -0.038 ± 0.034; under R28F, -0.134 ± 0.043.
As to R28T, the abundance fitness was 0.005 ± 0.029.
Under R28H stands -0.08 ± 0.039; under R28Y, -0.137 ± 0.037; under R28V, -0.089 ± 0.022.
Take V26F: the abundance fitness is -0.123 ± 0.043.
For the variant V26I, the abundance fitness is -0.025 ± 0.043.
In the case of V26T, the abundance fitness came out at 0.008 ± 0.028.
Consider V26P, for which the abundance fitness is -0.702 ± 0.042.
Turning to V26D, the abundance fitness was -0.135 ± 0.039.
For the variant V26W, the abundance fitness is -0.379 ± 0.029.
Regarding V26M, the abundance fitness was -0.012 ± 0.032.
On to V26Q, for which the abundance fitness is -0.011 ± 0.03.
Turning to V26A, the abundance fitness was -0.113 ± 0.025.
Consider V26C, for which the abundance fitness was -0.07 ± 0.033.
For the variant V26K, the abundance fitness was -0.048 ± 0.028.
With V26L the figure was -0.038 ± 0.024.
Consider V26S, for which the abundance fitness was -0.116 ± 0.025.
On to V26Y, for which the abundance fitness was -0.123 ± 0.043.
With V26E the figure was -0.036 ± 0.026; with V26G, -0.446 ± 0.023.
In the case of V26H, the abundance fitness was -0.159 ± 0.044.
For the variant G34E, the abundance fitness was -0.999 ± 0.065.
On to G34Q, for which the abundance fitness was -0.802 ± 0.054.
Take G34A: the abundance fitness is -0.157 ± 0.025.
As for G34N, the abundance fitness is -1.07 ± 0.13.
On to G34W, for which the abundance fitness was -1.1 ± 0.063.
On to G34K, for which the abundance fitness is -1.02 ± 0.084.
G34R: the abundance fitness was -0.954 ± 0.039.
With G34V, the abundance fitness is -0.962 ± 0.042.
Consider G34P, for which the abundance fitness was -0.92 ± 0.058.
With G34L the figure was -0.595 ± 0.032; with G34T, -0.066 ± 0.03; with G34D, -0.84 ± 0.061.
Consider G34I, for which the abundance fitness was -0.957 ± 0.13.
Take G34H: the abundance fitness was -0.543 ± 0.077.
As for G34Y, the abundance fitness is -0.867 ± 0.093.
Regarding G34F, the abundance fitness was -0.765 ± 0.081.
As for G34S, the abundance fitness is -0.001 ± 0.025.
Take G34M: the abundance fitness is -0.692 ± 0.051.
On to G34C, for which the abundance fitness is -0.552 ± 0.041.
In the case of S36F, the abundance fitness was -0.742 ± 0.067.
As to S36E, the abundance fitness was -0.866 ± 0.05.
Regarding S36G, the abundance fitness is -0.05 ± 0.022.
As for S36L, the abundance fitness was -0.867 ± 0.041.
As to S36H, the abundance fitness was -0.741 ± 0.074.
Regarding S36D, the abundance fitness was -0.826 ± 0.072.
For the variant S36Q, the abundance fitness is -0.81 ± 0.052.
Regarding S36C, the abundance fitness is -0.051 ± 0.032.
On to S36T, for which the abundance fitness was -0.477 ± 0.031.
S36M: the abundance fitness is -0.567 ± 0.041.
Consider S36K, for which the abundance fitness is -1.1 ± 0.087.
In the case of S36A, the abundance fitness was 0.032 ± 0.023.
Under S36N stands -0.606 ± 0.062.
Take S36V: the abundance fitness is -0.668 ± 0.033.
As to S36Y, the abundance fitness is -0.927 ± 0.096.
Turning to S36R, the abundance fitness was -1.07 ± 0.042.
Under P35M stands -0.355 ± 0.038; under P35G, -0.661 ± 0.032.
Under P35W stands -1.08 ± 0.074; under P35V, -0.331 ± 0.028.
For the variant P35Y, the abundance fitness is -0.708 ± 0.091.
As for P35L, the abundance fitness was -0.857 ± 0.044.
Consider P35S, for which the abundance fitness is -0.394 ± 0.033.
Turning to P35C, the abundance fitness was -0.435 ± 0.05.
As for P35A, the abundance fitness was -0.202 ± 0.028.
As to P35Q, the abundance fitness is -0.33 ± 0.038.
Under P35N stands -0.213 ± 0.053.
Regarding P35T, the abundance fitness is -0.543 ± 0.039.
For P35D, the abundance fitness is -0.737 ± 0.07.
With P35I the figure was -0.622 ± 0.088; with P35R, -0.486 ± 0.025; with P35K, -0.59 ± 0.047.
In the case of P35E, the abundance fitness was -0.35 ± 0.037.
In the case of K23C, the abundance fitness was -0.035 ± 0.035.
As to K23Q, the abundance fitness is -0.039 ± 0.034.
Regarding K23D, the abundance fitness is -0.042 ± 0.039.
Take K23M: the abundance fitness was -0.01 ± 0.032.
K23T: the abundance fitness is -0.037 ± 0.031.
Consider K23V, for which the abundance fitness was -0.136 ± 0.026.
Consider K23N, for which the abundance fitness came out at 0.015 ± 0.041.
With K23F, the abundance fitness is -0.066 ± 0.04.
Take K23W: the abundance fitness was -0.076 ± 0.028.
Consider K23A, for which the abundance fitness is -0.097 ± 0.026.
On to K23H, for which the abundance fitness is -0.026 ± 0.043.
With K23P, the abundance fitness is -0.317 ± 0.033.
With K23I the figure was -0.085 ± 0.05.
With K23L, the abundance fitness was -0.066 ± 0.025.
As to E22P, the abundance fitness is -0.979 ± 0.086.
Consider E22S, for which the abundance fitness was -0.126 ± 0.025.
On to E22H, for which the abundance fitness is -0.202 ± 0.051.
E22A: the abundance fitness is -0.075 ± 0.024.
On to E22Q, for which the abundance fitness is -0.029 ± 0.035.
E22T: the abundance fitness was -0.156 ± 0.034.
Under E22G stands -0.026 ± 0.021.
On to E22V, for which the abundance fitness is -0.066 ± 0.024.
Under E22K stands -0.199 ± 0.035; under E22M, -0.22 ± 0.035; under E22W, -0.305 ± 0.029.
Take E22Y: the abundance fitness was -0.012 ± 0.044.
With E22N the figure was -0.125 ± 0.048.
E22L: the abundance fitness is -0.315 ± 0.028.
With E22C the figure was -0.074 ± 0.034.
In the case of E22I, the abundance fitness is -0.336 ± 0.05.
With G38K the figure was -0.105 ± 0.036; with G38D, -0.061 ± 0.031; with G38V, -0.526 ± 0.026.
For the variant G38P, the abundance fitness is -0.54 ± 0.037.
G38T: the abundance fitness was -0.137 ± 0.03.
For the variant G38Y, the abundance fitness was -0.142 ± 0.038.
Take G38L: the abundance fitness is -0.21 ± 0.024.
With G38Q the figure was -0.099 ± 0.032; with G38M, -0.185 ± 0.034.
Take G38N: the abundance fitness is -0.078 ± 0.047.
G38F: the abundance fitness is -0.096 ± 0.041.
For the variant G38I, the abundance fitness was -0.651 ± 0.064.
For the variant G38H, the abundance fitness is -0.045 ± 0.041.
Consider G38W, for which the abundance fitness was -0.274 ± 0.026.
Under G38C stands -0.186 ± 0.03.
Take G38E: the abundance fitness was -0.155 ± 0.026.
As for G38S, the abundance fitness was -0.124 ± 0.023.
Consider T31N, for which the abundance fitness is -0.055 ± 0.029.
Consider T31W, for which the abundance fitness was -0.196 ± 0.032.
T31A: the abundance fitness was -0.045 ± 0.025.
Turning to T31Q, the abundance fitness is -0.029 ± 0.028.
For the variant T31V, the abundance fitness is -0.058 ± 0.025.
Take T31K: the abundance fitness was -0.012 ± 0.029.
As to T31D, the abundance fitness is -0.058 ± 0.036.
Under T31I stands -0.175 ± 0.03; under T31M, -0.067 ± 0.032; under T31G, -0.222 ± 0.029.
With T31E, the abundance fitness was -0.013 ± 0.032.
On to T31F, for which the abundance fitness is -0.149 ± 0.033.
Under T31L stands -0.168 ± 0.023; under T31C, -0.108 ± 0.033.
T31H: the abundance fitness is -0.016 ± 0.029.
Turning to T31R, the abundance fitness was -0.034 ± 0.023.
As for T31S, the abundance fitness is -0.001 ± 0.023.
